The target in experiment [1] is T1, human IL-17RE (human, UniProt Q8NFR9 24-667).
T1 construct: Retrovirally expressed on 293 cells or HDFn fibroblasts from human IL17RE cDNA; A possible Flag tag on the construct is not described; also called hIL-17RE
T1 sequence: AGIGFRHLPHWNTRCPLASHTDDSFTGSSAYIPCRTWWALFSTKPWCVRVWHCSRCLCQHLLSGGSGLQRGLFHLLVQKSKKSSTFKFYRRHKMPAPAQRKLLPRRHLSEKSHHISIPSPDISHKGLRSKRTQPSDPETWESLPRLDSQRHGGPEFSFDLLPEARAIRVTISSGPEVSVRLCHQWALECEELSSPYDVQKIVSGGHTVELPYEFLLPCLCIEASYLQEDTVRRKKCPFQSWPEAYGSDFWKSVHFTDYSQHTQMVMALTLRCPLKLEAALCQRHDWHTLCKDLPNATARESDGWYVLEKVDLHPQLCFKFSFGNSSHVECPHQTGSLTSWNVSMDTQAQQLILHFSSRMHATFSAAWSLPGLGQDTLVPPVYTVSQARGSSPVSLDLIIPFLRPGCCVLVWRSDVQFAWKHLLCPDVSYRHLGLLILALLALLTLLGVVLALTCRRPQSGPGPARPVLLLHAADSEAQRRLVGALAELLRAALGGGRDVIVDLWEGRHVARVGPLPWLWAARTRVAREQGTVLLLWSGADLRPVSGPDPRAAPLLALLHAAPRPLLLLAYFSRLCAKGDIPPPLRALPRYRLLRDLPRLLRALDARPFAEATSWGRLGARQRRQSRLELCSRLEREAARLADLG
Description: binding screen on IL-17RE expressing 293 cells.

The target of experiment [2] is T1, human IL-17RE. Kind of experiment: radioligand competition binding: 125I-hIL-17C displaced by unlabeled hIL-17C on 293 cells expressing hIL-17RE. Here is the method:
(§1) 293 cells expressing the IL-17 receptors were incubated for 2 hours at room temperature with a fixed concentration of iodinated hIL-17C combined with increasing concentrations of unlabeled hIL-17C and including a zero-added, buffer only sample. After the 2-hour incubation, the competition reactions were transferred to a Millipore Multiscreen filter plate and washed 4 times with binding buffer to separate the free from bound iodinated hIL-17C. The filters were counted on a Wallac Wizard 1470 gamma counter and binding data was evaluated using NewLigand software (Genentech), which uses the fitting algorithm of Munson and Rodbard to determine the binding affinity of IL-17C 58.

A further experiment deals with T2, human IL-17RC (human, UniProt Q8NAC3 21-791).
T2 construct: whole, on cells
T2 sequence (looked up): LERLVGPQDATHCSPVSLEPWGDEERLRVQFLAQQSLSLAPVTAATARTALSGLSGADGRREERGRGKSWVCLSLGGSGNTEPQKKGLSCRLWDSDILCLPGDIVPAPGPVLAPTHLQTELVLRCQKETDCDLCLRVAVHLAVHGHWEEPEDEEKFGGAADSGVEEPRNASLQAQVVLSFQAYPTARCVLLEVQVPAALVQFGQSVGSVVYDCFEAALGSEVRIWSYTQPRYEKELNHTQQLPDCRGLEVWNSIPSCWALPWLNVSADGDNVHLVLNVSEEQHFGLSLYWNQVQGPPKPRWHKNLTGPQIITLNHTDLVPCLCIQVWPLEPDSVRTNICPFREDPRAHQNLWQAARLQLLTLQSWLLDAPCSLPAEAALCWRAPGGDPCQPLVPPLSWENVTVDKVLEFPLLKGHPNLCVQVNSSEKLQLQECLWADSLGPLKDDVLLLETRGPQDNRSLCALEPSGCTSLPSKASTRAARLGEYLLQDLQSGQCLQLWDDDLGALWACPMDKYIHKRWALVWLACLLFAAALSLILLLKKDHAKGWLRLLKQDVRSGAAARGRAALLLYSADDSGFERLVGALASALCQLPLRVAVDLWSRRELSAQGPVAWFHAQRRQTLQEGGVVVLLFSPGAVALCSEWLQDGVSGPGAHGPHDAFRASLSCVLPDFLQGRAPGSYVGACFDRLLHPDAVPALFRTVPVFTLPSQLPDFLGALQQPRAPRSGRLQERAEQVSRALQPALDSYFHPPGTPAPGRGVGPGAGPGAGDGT
Kind of experiment: flow cytometry, Flag-tagged hIL-17C on 293 cells expressing the receptor, anti-Flag detection.

The target of another experiment is T3, human IL-17RD (human, UniProt Q8NFM7 17-739).
T3 construct: whole, on cells
T3 sequence (looked up): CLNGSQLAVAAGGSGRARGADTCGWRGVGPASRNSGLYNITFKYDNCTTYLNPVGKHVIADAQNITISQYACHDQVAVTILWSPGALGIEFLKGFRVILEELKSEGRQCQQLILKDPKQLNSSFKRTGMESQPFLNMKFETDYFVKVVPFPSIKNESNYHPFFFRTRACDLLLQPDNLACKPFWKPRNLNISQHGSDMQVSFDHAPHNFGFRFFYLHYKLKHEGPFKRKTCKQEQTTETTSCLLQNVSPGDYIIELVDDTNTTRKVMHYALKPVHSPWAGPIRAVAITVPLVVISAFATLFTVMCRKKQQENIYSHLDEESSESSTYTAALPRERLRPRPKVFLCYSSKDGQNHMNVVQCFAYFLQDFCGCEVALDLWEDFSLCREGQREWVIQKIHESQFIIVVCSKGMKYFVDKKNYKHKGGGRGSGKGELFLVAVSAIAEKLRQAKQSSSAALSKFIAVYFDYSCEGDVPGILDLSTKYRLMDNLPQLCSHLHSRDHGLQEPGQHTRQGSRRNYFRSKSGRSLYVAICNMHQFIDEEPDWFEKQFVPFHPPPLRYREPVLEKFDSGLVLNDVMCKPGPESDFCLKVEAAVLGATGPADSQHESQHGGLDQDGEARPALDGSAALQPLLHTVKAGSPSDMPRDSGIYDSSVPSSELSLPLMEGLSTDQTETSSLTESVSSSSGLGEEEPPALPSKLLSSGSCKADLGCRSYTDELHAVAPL
The experiment is described as above.

A further experiment has as its target T4, human IL-17RB (human, UniProt Q9NRM6 18-502).
T4 construct: whole, on cells
T4 sequence (looked up): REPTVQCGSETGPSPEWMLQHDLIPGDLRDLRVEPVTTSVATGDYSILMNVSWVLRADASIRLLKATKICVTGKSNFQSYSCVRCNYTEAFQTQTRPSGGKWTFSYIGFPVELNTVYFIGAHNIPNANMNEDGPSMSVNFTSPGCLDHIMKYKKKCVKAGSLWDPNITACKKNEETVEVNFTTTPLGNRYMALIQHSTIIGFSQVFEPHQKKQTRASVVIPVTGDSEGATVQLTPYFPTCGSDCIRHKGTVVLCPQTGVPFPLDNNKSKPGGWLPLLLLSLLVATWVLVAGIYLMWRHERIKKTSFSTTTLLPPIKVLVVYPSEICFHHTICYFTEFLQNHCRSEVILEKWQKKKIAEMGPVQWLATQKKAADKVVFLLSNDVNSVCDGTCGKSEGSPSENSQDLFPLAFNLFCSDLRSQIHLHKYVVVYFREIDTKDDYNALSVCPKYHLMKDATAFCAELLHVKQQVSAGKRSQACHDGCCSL
Described as above.

A further experiment addresses T5, human IL-17RA (human, UniProt Q96F46 33-866).
T5 construct: Retrovirally expressed on 293 cells from human IL17RA cDNA (pMSCV-IRES-GFP); Surface expression was confirmed with an anti-Flag antibody, so the construct may carry a Flag tag; not described; also called hIL-17RA
T5 sequence: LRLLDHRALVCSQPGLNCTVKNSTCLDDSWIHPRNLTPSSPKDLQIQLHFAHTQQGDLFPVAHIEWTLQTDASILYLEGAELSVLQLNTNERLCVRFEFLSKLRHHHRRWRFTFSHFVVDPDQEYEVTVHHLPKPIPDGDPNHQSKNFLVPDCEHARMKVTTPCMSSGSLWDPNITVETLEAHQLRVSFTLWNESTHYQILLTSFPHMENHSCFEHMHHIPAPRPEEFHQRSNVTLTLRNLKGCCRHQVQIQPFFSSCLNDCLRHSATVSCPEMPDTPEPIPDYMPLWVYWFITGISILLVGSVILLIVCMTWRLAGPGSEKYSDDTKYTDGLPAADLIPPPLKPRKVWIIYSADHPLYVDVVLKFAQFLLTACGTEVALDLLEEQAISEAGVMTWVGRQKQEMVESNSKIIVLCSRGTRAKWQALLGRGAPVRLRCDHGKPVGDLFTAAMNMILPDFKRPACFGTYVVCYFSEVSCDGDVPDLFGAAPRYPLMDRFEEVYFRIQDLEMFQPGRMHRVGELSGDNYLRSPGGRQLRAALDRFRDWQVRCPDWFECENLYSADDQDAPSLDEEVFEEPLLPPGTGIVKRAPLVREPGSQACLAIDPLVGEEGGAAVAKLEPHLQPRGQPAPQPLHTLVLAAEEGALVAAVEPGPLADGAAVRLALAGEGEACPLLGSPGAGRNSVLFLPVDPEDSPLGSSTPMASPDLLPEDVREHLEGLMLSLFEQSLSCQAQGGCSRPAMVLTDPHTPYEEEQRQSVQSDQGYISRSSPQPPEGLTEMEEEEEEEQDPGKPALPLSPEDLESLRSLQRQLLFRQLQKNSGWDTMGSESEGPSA
Description: radioligand competition binding: 125I-hIL-17C displaced by unlabeled hIL-17C on 293 cells expressing hIL-17RA. As for the experimental part: as §1

B1: IL-17B (ligand, UniProt Q9UHF5 21-180, looked up)
chain: QPRSPKSKRKGQGRPGPLAPGPHQVPLDLVSRMKPYARMEEYERNIEEMVAQLRNSSELAQRKCEVNLQLWMSNKRSLSPWGYSINHDPSRIPVDLPEARCLCLGCVNPFTMQEDRSMVSVPVFSQVPVRRRLCPPPPRTGPCRQRAVMETIAVGCTCIF
In the case of B1, the binding result in the experiment with human IL-17RE [1] was “no binding”.

B2: Flag-tagged mature human IL-17C (His-19 to Val-197) with Gly-77 and Arg-78 substituted to Arg and Thr (ligand)
chain: HHDPSLRGHPHSHGTPHCYSAEELPLGQAPPHLLARGAKWGQALPVALVSSLEAASHRRTHERPSATTQCPVLRPEEVLEADTHQRSISPWRYRVDTDEDRYPQKLAFAECLCRGCIDARTGRETAALNSVRLLQSLLVLRRRPCSRDGSGLPTPGAFAFHTEFIHVPVGCTCVLPRSV
notes: Made in CHO cells as an N-terminal Flag fusion; For the radioligand assay the protein was iodinated (Iodogen); also called hIL-17C; FLAG-tagged hIL-17C; not shown: N-terminal Flag tag
For B2, the Kd worked out at 0.35 nM with human IL-17RE [2] and 1400 nM with human IL-17RA. For the same molecule, the binding result in the experiment with human IL-17RC, with human IL-17RD and with human IL-17RB was “no binding” in each case.

B3: IL-17E (ligand, UniProt Q9H293 33-177, looked up)
chain: YSHWPSCCPSKGQDTSEELLRWSTVPVPPLEPARPNRHPESCRASEDGPLNSRAISPWRYELDRDLNRLPQDLYHARCLCPHCVSLQTGSHMDPRGNSELLYHNQTVFYRRPCHGEKGTHKGYCLERRLYRVSLACVCVRPRVMG
notes: also called IL-25
Turning to B3, the binding result with human IL-17RE [1] is “no binding”.

B4: IL-17F (ligand, UniProt Q96PD4 31-163, looked up)
chain: RKIPKVGHTFFQKPESCPPVPGGSMKLDIGIINENQRVSMSRNIESRSTSPWNYTVTWDPNRYPSEVVQAQCRNLGCINAQGKEDISMNSVPIQQETLVVRRKHQGCSVSFQLEKVLVTVGCTCVTPVIHHVQ
For B4, the binding result with human IL-17RE [1] is reported as “no binding”.
